To fix the notation:
B1: M15-YTE (antibody, V domains shown)
VH: QVQLLESGGGLVQPGGSLRLSCAASGFTFSSYAMSWVRQAPGKGLEWASAISGSGGSTYYADSVEGRFTISRDNSKNTLYLQMNSLRAEDTAVYYCAKDTGYCGDDCYIKLIRGGPDYWGQGTLVTVSS
VL: DIVMTQSPLSLPVTLGQPASISCRSSQSLVYSDGNTFLNWFQQRPGQSPRRLIYQVSNRDSGVPDRFSGSGSGTDFTLKISRVEAEDVGVYYCMQGTHWPRTFGQGTKLEIK
B2: S15 (plant-produced COVA2-15, single-chain (sc)Fv-Fc format) (Fc fusion, human)
VH: QVQLLESGGGLVQPGGSLRLSCAASGFTFSSYAMSWVRQAPGKGLEWASAISGSGGSTYYADSVEGRFTISRDNSKNTLYLQMNSLRAEDTAVYYCAKDTGYCGDDCYIKLIRGGPDYWGQGTLVTVSS
VL: DIVMTQSPLSLPVTLGQPASISCRSSQSLVYSDGNTFLNWFQQRPGQSPRRLIYQVSNRDSGVPDRFSGSGSGTDFTLKISRVEAEDVGVYYCMQGTHWPRTFGQGTKLEIK
B3: M15 (plant-produced COVA2-15, conventional IgG1) (antibody, V domains shown)
VH: QVQLLESGGGLVQPGGSLRLSCAASGFTFSSYAMSWVRQAPGKGLEWASAISGSGGSTYYADSVEGRFTISRDNSKNTLYLQMNSLRAEDTAVYYCAKDTGYCGDDCYIKLIRGGPDYWGQGTLVTVSS
VL: DIVMTQSPLSLPVTLGQPASISCRSSQSLVYSDGNTFLNWFQQRPGQSPRRLIYQVSNRDSGVPDRFSGSGSGTDFTLKISRVEAEDVGVYYCMQGTHWPRTFGQGTKLEIK
B4: M15-HDEL (antibody, V domains shown)
VH: QVQLLESGGGLVQPGGSLRLSCAASGFTFSSYAMSWVRQAPGKGLEWASAISGSGGSTYYADSVEGRFTISRDNSKNTLYLQMNSLRAEDTAVYYCAKDTGYCGDDCYIKLIRGGPDYWGQGTLVTVSS
VL: DIVMTQSPLSLPVTLGQPASISCRSSQSLVYSDGNTFLNWFQQRPGQSPRRLIYQVSNRDSGVPDRFSGSGSGTDFTLKISRVEAEDVGVYYCMQGTHWPRTFGQGTKLEIK
B5: S15-HDEL (Fc fusion)
VH: QVQLLESGGGLVQPGGSLRLSCAASGFTFSSYAMSWVRQAPGKGLEWASAISGSGGSTYYADSVEGRFTISRDNSKNTLYLQMNSLRAEDTAVYYCAKDTGYCGDDCYIKLIRGGPDYWGQGTLVTVSS
VL: DIVMTQSPLSLPVTLGQPASISCRSSQSLVYSDGNTFLNWFQQRPGQSPRRLIYQVSNRDSGVPDRFSGSGSGTDFTLKISRVEAEDVGVYYCMQGTHWPRTFGQGTKLEIK
B6: M15-FX (antibody, V domains shown)
VH: QVQLLESGGGLVQPGGSLRLSCAASGFTFSSYAMSWVRQAPGKGLEWASAISGSGGSTYYADSVEGRFTISRDNSKNTLYLQMNSLRAEDTAVYYCAKDTGYCGDDCYIKLIRGGPDYWGQGTLVTVSS
VL: DIVMTQSPLSLPVTLGQPASISCRSSQSLVYSDGNTFLNWFQQRPGQSPRRLIYQVSNRDSGVPDRFSGSGSGTDFTLKISRVEAEDVGVYYCMQGTHWPRTFGQGTKLEIK
B7: S15-FX (Fc fusion)
VH: QVQLLESGGGLVQPGGSLRLSCAASGFTFSSYAMSWVRQAPGKGLEWASAISGSGGSTYYADSVEGRFTISRDNSKNTLYLQMNSLRAEDTAVYYCAKDTGYCGDDCYIKLIRGGPDYWGQGTLVTVSS
VL: DIVMTQSPLSLPVTLGQPASISCRSSQSLVYSDGNTFLNWFQQRPGQSPRRLIYQVSNRDSGVPDRFSGSGSGTDFTLKISRVEAEDVGVYYCMQGTHWPRTFGQGTKLEIK
B8: S15-YTE (Fc fusion)
VH: QVQLLESGGGLVQPGGSLRLSCAASGFTFSSYAMSWVRQAPGKGLEWASAISGSGGSTYYADSVEGRFTISRDNSKNTLYLQMNSLRAEDTAVYYCAKDTGYCGDDCYIKLIRGGPDYWGQGTLVTVSS
VL: DIVMTQSPLSLPVTLGQPASISCRSSQSLVYSDGNTFLNWFQQRPGQSPRRLIYQVSNRDSGVPDRFSGSGSGTDFTLKISRVEAEDVGVYYCMQGTHWPRTFGQGTKLEIK

This assay has as its target T1, SARS-CoV-2 Spike Wuhan (recombinant) (SARS-CoV-2, Wuhan-Hu-1, UniProt P0DTC2).
T1 construct: also called recombinant SARS-CoV-2 Spike
Nature of the assay: ELISA; plates coated with 2 μg/mL SARS-CoV-2 Spike Wuhan in PBS; antibodies from 5 nM, 10-fold serial dilutions in PBS/0.5% BSA, 1 h RT; detected with goat anti-human IgG (H + L) peroxidase. As to conditions: both partners purified.
Consider B1, for which the binding result is “binds”.

B2: the binding result is reported as “binds”.

In the case of B3, the binding result is reported as “binds”.

B4: the binding result is listed as “binds”.

Consider B5, for which the binding result is listed as “binds”.

As for B6, the binding result was “binds”.

Regarding B7, the binding result is reported as “binds”.

On to B8, for which the binding result is listed as “binds”.

For the origin of these results see paper PMC11672753 (Plant Biotechnology Journal, 2024).
